According to publication PMC6436656:

Molecular target: human GPR35 (GPR35a splice variant), receptor part of the hGPR35 SPASM sensors, Q9HC97
Test: BRET (hGPR35 SPASM sensor)
Conditions: chain shown with the change, highest concentration, read off a plot
[1] = bufrolin, 1e-6 M, parent: est. 1.1
[2] = lodoxamide, 1e-6 M, parent: est. 1.1
[3] = pamoic acid, about 10^-5.5 M, parent: est. 1.0
[4] = zaprinast, 1e-4 M, parent: est. 1.1

human GPR35 (GPR35a splice variant), receptor part of the hGPR35 SPASM sensors, Q9HC97, sequence (Q9HC97 whole entry, change not shown, canonical isoform): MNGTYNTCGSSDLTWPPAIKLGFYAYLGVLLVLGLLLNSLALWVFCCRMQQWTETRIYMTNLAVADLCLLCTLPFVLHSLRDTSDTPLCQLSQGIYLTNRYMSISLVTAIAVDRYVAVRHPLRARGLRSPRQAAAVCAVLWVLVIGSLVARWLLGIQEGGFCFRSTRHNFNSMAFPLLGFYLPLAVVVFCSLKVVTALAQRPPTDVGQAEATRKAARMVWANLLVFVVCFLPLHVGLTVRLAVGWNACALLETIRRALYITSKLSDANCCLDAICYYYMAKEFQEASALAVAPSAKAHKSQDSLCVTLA

response (BRET ratio (fold change)) [1]	response (BRET ratio (fold change)) [2]	response (BRET ratio (fold change)) [3]	response (BRET ratio (fold change)) [4]	Binder
1.1	1.2	1.1	1.2	DTENVRFVFHAVKDTILQENLKQIMLQ [final 27 aa of Gα12, G peptide of the hGPR35-Gα12 SPASM sensor, Q03113 G.H5.22 Asp to Gln]
1.4	1.4	1.1	1.4	DTENVRFVFHAVKDTILQENLKDLMLQ [final 27 aa of Gα12, G peptide of the hGPR35-Gα12 SPASM sensor, Q03113 G.H5.23 Ile to Leu]
